# ± gives the standard deviation of the averaged measurements.
# Assays:
# Saccharomyces cerevisiae [1] = test: protein stability index of tFT-peptide fusion (C-terminal peptide) (PSI (0-1 scale)); higher = more stable (slower turnover)
# Method: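 MPS profiling in S. cerevisiae of the tFT-X12 degron library: putative degron peptides plus stable controls, 12 aa, fused to the C-terminus of a sfGFP-mCherry timer. Cells are FACS-sorted into 8 mCherry/sfGFP bins and deep-sequenced. PSI runs from 0 (unstable) to 1 (stable). Backgrounds are wild type, das1Δ and doa10Δ at 30 °C, and wild type, das1Δ, cdc34-1 and cdc53-1 at 37 °C; 2-3 technical replicates each.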
# Saccharomyces cerevisiae [2] = test: as above; details: genetic background: wild type; temperature: 30 C
# [3] = genetic background: cdc34-1, temperature: 37 C
# [4] = genetic background: cdc53-1, temperature: 37 C
# [5] = genetic background: das1 deletion, temperature: 30 C
# [6] = genetic background: das1 deletion, temperature: 37 C
# [7] = genetic background: doa10 deletion, temperature: 30 C
# [8] = genetic background: wild type, temperature: 30 C
# [9] = genetic background: wild type, temperature: 37 C
# 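Note: PSI is a weighted mean of sequencing reads over stability bins, variants kept only with over 10 reads, mCherry proximal and sfGFP distal, peptide attached via GGGS linker.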
Sequence,protein stability index (Saccharomyces cerevisiae [1]; [3]),protein stability index (Saccharomyces cerevisiae [1]; [4]),protein stability index (Saccharomyces cerevisiae [1]; [5]),protein stability index (Saccharomyces cerevisiae [1]; [6]),protein stability index (Saccharomyces cerevisiae [1]; [7]),protein stability index (Saccharomyces cerevisiae [1]; [8]),protein stability index (Saccharomyces cerevisiae [1]; [9]),protein stability index (Saccharomyces cerevisiae [2])
GCILSLCYAVST,0.555 ± 0.051,0.569 ± 0.024,0.332 ± 0.026,0.534 ± 0.014,0.296 ± 0.0074,0.318 ± 0.018,0.523 ± 0.013,0.389 ± 0.016
GCVTFVLISFCA,0.238 ± 0.007,0.306 ± 0.039,0.225 ± 0.03,0.425 ± 0.012,0.186 ± 0.035,0.208 ± 0.027,0.386 ± 0.012,0.358 ± 0.016
GELVLVMYGIWV,0.392 ± 0.013,0.47 ± 0.0055,0.29 ± 0.028,0.502 ± 0.013,0.238 ± 0.0055,0.277 ± 0.033,0.458 ± 0.0063,0.351 ± 0.058
GFESTCSLLCVF,0.33 ± 0.026,0.348 ± 0.015,0.314 ± 0.036,0.433 ± 0.001,0.264 ± 0.021,0.306 ± 0.026,0.407 ± 0.013,0.43 ± 0.029
GFFFFHGLCFFV,0.448 ± 0.017,0.513 ± 0.028,0.382 ± 0.029,0.5453 ± 0.0035,0.358 ± 0.028,0.355 ± 0.023,0.526 ± 0.02,0.43 ± 0.047
GFFFWTMCFWVV,0.255 ± 0.01,0.349 ± 0.022,0.303 ± 0.038,0.456 ± 0.011,0.204 ± 0.0089,0.194 ± 0.02,0.322 ± 0.026,0.284 ± 0.046
GFLVPSSPRCHQ,0.708 ± 0.018,0.72 ± 0.039,0.6427 ± 0.0046,0.72 ± 0.0086,0.654 ± 0.018,0.681 ± 0.047,0.691 ± 0.012,0.727 ± 0.0082
GFSPLFVLVFGV,0.47 ± 0.012,0.486 ± 0.024,0.312 ± 0.027,0.518 ± 0.012,0.333 ± 0.016,0.311 ± 0.013,0.489 ± 0.011,0.4261 ± 0.0035
GGGSASGWRAAA,0.665 ± 0.0097,0.735 ± 0.015,0.633 ± 0.0096,0.716 ± 0.027,0.344 ± 0.0043,0.39 ± 0.022,0.639 ± 0.0072,0.48 ± 0.025
GGKTLSIFLRIS,0.611 ± 0.029,0.693 ± 0.021,0.554 ± 0.022,0.665 ± 0.0095,0.14 ± 0.013,0.159 ± 0.013,0.295 ± 0.017,0.258 ± 0.0057
GGLVVYVWGRWS,0.526 ± 0.017,0.592 ± 0.025,0.383 ± 0.016,0.589 ± 0.009,0.356 ± 0.021,0.377 ± 0.015,0.573 ± 0.023,0.457 ± 0.024
GGLWRRLCLGVG,0.4 ± 0.021,0.4633 ± 0.0012,0.388 ± 0.018,0.469 ± 0.011,0.3 ± 0.0089,0.311 ± 0.016,0.453 ± 0.016,0.329 ± 0.041
GGVCVRMECWMG,0.57 ± 0.036,0.629 ± 0.018,0.486 ± 0.032,0.5789 ± 0.0015,0.485 ± 0.03,0.496 ± 0.034,0.5864 ± 0.0051,0.496 ± 0.0059
GGVVGRPWWYVG,0.694 ± 0.023,0.79439 ± 0.00012,0.677 ± 0.014,0.795 ± 0.013,0.266 ± 0.015,0.301 ± 0.015,0.605 ± 0.017,0.425 ± 0.031
GIFVRIVCIDVA,0.125 ± 0.0095,0.183 ± 0.0066,0.178 ± 0.032,0.302 ± 0.007,0.143 ± 0.0085,0.165 ± 0.021,0.2851 ± 0.0006,0.2651 ± 0.0024
GINYSNKKILVN,0.574 ± 0.016,0.6729 ± 0.0015,0.493 ± 0.027,0.691 ± 0.026,0.278 ± 0.022,0.273 ± 0.033,0.57 ± 0.0072,0.444 ± 0.059
GLCSGTGARWLV,0.703 ± 0.0096,0.7667 ± 0.0022,0.636 ± 0.027,0.749 ± 0.018,0.52 ± 0.013,0.516 ± 0.0084,0.701 ± 0.016,0.559 ± 0.086
GLPRASPLPIPV,0.553 ± 0.032,0.591 ± 0.006,0.447 ± 0.021,0.6021 ± 0.0017,0.425 ± 0.01,0.443 ± 0.016,0.57 ± 0.0065,0.517 ± 0.048
GLRLRCPLLLSL,0.354 ± 0.018,0.341 ± 0.018,0.315 ± 0.049,0.47 ± 0.011,0.507 ± 0.023,0.324 ± 0.013,0.425 ± 0.0045,0.383 ± 0.028
GLSGFLLLIVLY,0.194 ± 0.027,0.256 ± 0.019,0.239 ± 0.02,0.417 ± 0.049,0.252 ± 0.0089,0.228 ± 0.035,0.35509 ± 0.00019,0.353 ± 0.026

Sequence,protein stability index (Saccharomyces cerevisiae [1]; [3]),protein stability index (Saccharomyces cerevisiae [1]; [4]),protein stability index (Saccharomyces cerevisiae [1]; [5]),protein stability index (Saccharomyces cerevisiae [1]; [6]),protein stability index (Saccharomyces cerevisiae [1]; [7]),protein stability index (Saccharomyces cerevisiae [1]; [8]),protein stability index (Saccharomyces cerevisiae [1]; [9]),protein stability index (Saccharomyces cerevisiae [2])
GLWLCRGLVRAW,0.349 ± 0.026,0.382 ± 0.021,0.299 ± 0.021,0.46 ± 0.009,0.253 ± 0.001,0.289 ± 0.021,0.438 ± 0.014,0.43 ± 0.04
GPFGVGALVCCM,0.462 ± 0.016,0.4425 ± 0.00085,0.333 ± 0.032,0.503 ± 0.0066,0.304 ± 0.01,0.351 ± 0.017,0.4844 ± 0.00066,0.433 ± 0.0072
GPNWCSVCQGVG,0.421 ± 0.03,0.477 ± 0.028,0.43 ± 0.011,0.4926 ± 0.0034,0.446 ± 0.0064,0.426 ± 0.013,0.4733 ± 0.00063,0.453 ± 0.015
GPPPAPSPTPSP,0.661 ± 0.035,0.7253 ± 0.0049,0.676 ± 0.021,0.7217 ± 0.0055,0.685 ± 0.014,0.687 ± 0.015,0.699 ± 0.02,0.732 ± 0.023
GPTLLVSRIAVI,0.506 ± 0.026,0.517 ± 0.024,0.368 ± 0.039,0.565 ± 0.011,0.137 ± 0.0051,0.162 ± 0.021,0.291 ± 0.015,0.249 ± 0.011
GQLIYQHIFILG,0.662 ± 0.063,0.6481 ± 0.0016,0.47 ± 0.011,0.676 ± 0.025,0.312 ± 0.021,0.353 ± 0.021,0.5677 ± 0.0052,0.4678 ± 0.00024
GRPYHLCLFSCF,0.646 ± 0.018,0.754 ± 0.013,0.646 ± 0.036,0.754 ± 0.024,0.333 ± 0.024,0.343 ± 0.027,0.577 ± 0.016,0.353 ± 0.021
GRRLGLLNLLSY,0.649 ± 0.029,0.744 ± 0.0023,0.625 ± 0.013,0.724 ± 0.019,0.255 ± 0.016,0.305 ± 0.028,0.601 ± 0.027,0.456 ± 0.064
GRSVGVTMFKNG,0.614 ± 0.059,0.7332 ± 0.0067,0.627 ± 0.017,0.73 ± 0.018,0.172 ± 0.019,0.206 ± 0.014,0.479 ± 0.016,0.3421 ± 0.0014
GRWLYSACVALN,0.62 ± 0.072,0.71 ± 0.014,0.596 ± 0.022,0.7063 ± 0.0033,0.195 ± 0.0073,0.196 ± 0.026,0.4027 ± 0.0021,0.395 ± 0.017
GSRVICMVVATM,0.546 ± 0.044,0.611 ± 0.016,0.463 ± 0.041,0.6078 ± 0.0058,0.419 ± 0.035,0.436 ± 0.02,0.582 ± 0.0029,0.488 ± 0.022
GTRREFVILYLF,0.544 ± 0.026,0.675 ± 0.027,0.525 ± 0.016,0.694 ± 0.035,0.119 ± 0.0081,0.133 ± 0.035,0.101 ± 0.019,0.191 ± 0.0076
GVFISFFFVFRF,0.154 ± 0.0055,0.173 ± 0.037,0.269 ± 0.035,0.373 ± 0.013,0.354 ± 0.017,0.237 ± 0.025,0.309 ± 0.033,0.308 ± 0.013
GVFRYKLILRKM,0.527 ± 0.056,0.614 ± 0.018,0.586 ± 0.015,0.634 ± 0.017,0.269 ± 0.0066,0.272 ± 0.014,0.435 ± 0.012,0.337 ± 0.05
GVLHSKGPWFSG,0.703 ± 0.028,0.757 ± 0.0099,0.652 ± 0.0073,0.75 ± 0.0095,0.65 ± 0.014,0.665 ± 0.014,0.72815 ± 0.0004,0.729 ± 0.017
GVLLLGSYQWVG,0.306 ± 0.031,0.394 ± 0.021,0.368 ± 0.029,0.334 ± 0.0053,0.395 ± 0.008,0.373 ± 0.025,0.317 ± 0.0059,0.313 ± 0.007
GVWLRAVRGFGV,0.706 ± 0.03,0.7586 ± 0.0013,0.646 ± 0.013,0.76107 ± 0.00069,0.652 ± 0.0083,0.6542 ± 0.0058,0.7403 ± 0.0064,0.738 ± 0.04
GWCLGFWCLLVC,0.0399 ± 0.0089,0.0444 ± 0.0049,0.123 ± 0.02,0.156 ± 0.019,0.0958 ± 0.005,0.0537 ± 0.018,0.068 ± 0.014,0.118 ± 0.093
GWVVWLTGCLVF,0.512 ± 0.028,0.592 ± 0.014,0.446 ± 0.022,0.586 ± 0.042,0.407 ± 0.0086,0.443 ± 0.017,0.621 ± 0.028,0.4592 ± 0.0025

# Reference: the supplement of paper PMC10724198
